Experimental data: US20250195679A1, “ANTIBODY-DRUG CONJUGATE AND USE THEREOF” (SHANGHAI HUAOTA BIOPHARMACEUTICAL CO., LTD., priority 2022, published 2025)

T1: CD73 on the cell surface of Calu6 cells (Homo sapiens, UniProt P21589)
T1 construct: endogenous in cells; host or cells: Calu6
T1 sequence (P21589 27-549): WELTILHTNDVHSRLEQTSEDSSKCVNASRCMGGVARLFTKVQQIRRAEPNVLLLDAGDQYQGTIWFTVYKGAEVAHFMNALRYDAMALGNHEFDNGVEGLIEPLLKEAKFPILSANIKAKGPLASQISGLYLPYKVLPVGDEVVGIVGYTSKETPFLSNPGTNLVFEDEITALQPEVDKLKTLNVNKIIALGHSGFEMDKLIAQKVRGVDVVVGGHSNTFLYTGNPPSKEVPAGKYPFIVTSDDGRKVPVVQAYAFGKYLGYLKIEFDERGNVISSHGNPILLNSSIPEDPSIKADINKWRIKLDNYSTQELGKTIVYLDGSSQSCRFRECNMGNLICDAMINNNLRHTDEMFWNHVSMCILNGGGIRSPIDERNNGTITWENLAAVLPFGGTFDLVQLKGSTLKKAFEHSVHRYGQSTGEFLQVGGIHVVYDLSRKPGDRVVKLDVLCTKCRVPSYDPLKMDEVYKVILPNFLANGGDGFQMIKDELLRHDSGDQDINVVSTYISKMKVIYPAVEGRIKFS


How the values were obtained:
[1] = tested on: BxPC-3 human pancreatic cancer cells; experiment: BxPC3 CDX pancreatic cancer mouse efficacy model; type: in vivo, NPG mice; conditions: for inhibition of growth of BxPC-3 pancreatic cancer: 1 mg/kg i.p. BIW, 6 doses, FIG. 7; for inhibitory effect on tumor growth compared with 900698, Oleclumab and Uliledlimab: conjugate 1 mg/kg vs antibodies 5 mg/kg, i.p. BIW
Procedure: NPG mice were used to establish a BxPC-3 pancreatic cancer animal model for assaying the efficacy of the test antibodies. The BxPC-3 human pancreatic cancer cells used in this example were incubated in an RPMI-1640 medium supplemented with 10% FBS in an incubator at 37° C. with 5% CO2. Before continuous cell culturing for ten generations, 100 μL of PBS containing about 1×10^7 BxPC-3 cells was mixed uniformly with an equal volume of Matrigel. The mixture was then inoculated by subcutaneous injection into 18 NPG mice on the right side of the back near the axilla, with an inoculation volume of about 200 μL. The mice were anesthetized with 2%-5% isoflurane prior to the inoculation. On the day of inoculation, 1.0×10^7 PBMCs (100 μL) were injected via the tail vein. When the tumors grew to an average size of about 50-80 mm^3, the 18 tumor-bearing mice were randomly divided into 3 groups of 6 based on tumor volume and body weight.
Oleclumab is an anti-CD73 monoclonal antibody developed by AstraZeneca, currently in Phase 2 clinical trials. Uliledlimab is an anti-CD73 monoclonal antibody developed by I-Mab Biopharma, currently in Phase 1 clinical trials. The amino acid sequence of the heavy chain of 900543 is as set forth in SEQ ID NO. 45, and the amino acid sequence of the light chain of 900543 is as set forth in SEQ ID NO. 46. The amino acid sequence of the heavy chain of Oleclumab is as set forth in SEQ ID NO. 47, and the amino acid sequence of the light chain of Oleclumab is as set forth in SEQ ID NO. 48. The amino acid sequence of the heavy chain of Uliledlimab is as set forth in SEQ ID NO. 49, and the amino acid sequence of the light chain of Uliledlimab is as set forth in SEQ ID NO. 50.

[2] = target: T1, CD73 on the cell surface of Calu6 cells; experiment: Induction of endocytosis of CD73 antigen on cell surface (Calu6 cells, flow cytometry); type: cell-based; conditions: Example 5, 1 μg/mL, 5 h, 37° C. vs 4° C.
Procedure: The antibody-drug conjugate 1 and the antibody-drug conjugate 2 prepared in Example 1 and the 900698 naked antibody were diluted to 1 μg/mL with a PBS solution, with 2 replicate wells set up for each concentration. Calu6 cells in the logarithmic growth phase were taken and prepared into a cell suspension at 2×10^5 cells/mL. The cell suspension was then added at 100 μL (about 20000 cells) per well to a 96-well U-bottom plate and centrifuged at 300 g for 3 min, and then the supernatant was discarded. Then, the diluted antigen-binding proteins were each added at 100 μL/well to resuspend the cells, and the mixture was mixed uniformly and incubated at 4° C. for 30 min. […] After the incubation was completed, the cells were washed twice and centrifuged at 300 g for 3 min, and the fluorescence intensity was detected by flow cytometry.
The endocytosis efficiency of monoclonal antibodies 900698 and 900725 was compared through an endocytosis assay, with the procedures as follows: Anti-CD73 antigen-binding proteins such as the CD73 positive control antibody BMS-986179, 900698, and 900725 were diluted to 1 μg/mL with a PBS solution, with 2 replicate wells set up for each concentration. […] After the incubation was completed, the cells were washed twice and centrifuged at 300 g for 3 min, and the fluorescence intensity was detected by flow cytometry. […]

Molecule	inhibition of growth of BxPC-3 pancreatic cancer [1]	inhibitory effect on tumor growth compared with 900698, Oleclumab and Uliledlimab [1]	Endocytosis efficiency (%) [2]
Antibody-drug conjugate 1: 900698 antibody cysteine-conjugated to SN-38 via Mc-VC-PAB-DMEDA-PEG linker, DAR about 7.8 (conjugate) VH: QVQLVESGGGLVKPGGSLRLSCAASGFTFSKYAMSWIRQAPGKGLEWVAEISSGGGYINYADSVKGRFTISRDNAKNSLYLQMNSLRAEDTAVYYCARAIYYYGSSYNYYAMDYWGQGTTVTVSS VL: DIQMTQSPSSLSASVGDRVTITCRASQDVGTAEAWYQQKPGKAPKLLIYWASTRHTGVPSRFSGSGSGTDFTLTISSLQPEDFATYYCQQYSSYPLTFGQGTKLEIK	significantly inhibit the growth	superior	about 95%
Antibody-drug conjugate 2: 900698 antibody cysteine-conjugated to SN-38 via MP2-VC-PAB-DMEDA-PEG linker, DAR about 7.8 (conjugate) VH: QVQLVESGGGLVKPGGSLRLSCAASGFTFSKYAMSWIRQAPGKGLEWVAEISSGGGYINYADSVKGRFTISRDNAKNSLYLQMNSLRAEDTAVYYCARAIYYYGSSYNYYAMDYWGQGTTVTVSS VL: DIQMTQSPSSLSASVGDRVTITCRASQDVGTAEAWYQQKPGKAPKLLIYWASTRHTGVPSRFSGSGSGTDFTLTISSLQPEDFATYYCQQYSSYPLTFGQGTKLEIK	significantly inhibit the growth	superior	about 95%
